Assays:
[1] = biological target: SA-B3/OmpA fusion protein (E. coli OmpA with streptavidin binding ligand peptide SA-B3 inserted) (Escherichia coli); assay: magnetic separation (µMACS column) of a mixed E. coli Top10 culture with streptavidin-coated iron nanoparticles; input mix was about 47% OmpA+/SA-B3+ and 53% OmpA+LUX+; counted as CFU on plates
[2] = biological target: SA-B3/OmpA fusion protein (E. coli OmpA with streptavidin binding ligand peptide SA-B3 inserted) (Escherichia coli); assay: magnetic separation (µMACS column) of a mixed E. coli Top10 culture with streptavidin-coated iron nanoparticles; counted as CFU on plates

Sequence of SA-B3/OmpA fusion protein (E. coli OmpA with streptavidin binding ligand peptide SA-B3 inserted) (Escherichia coli) (chain, as listed by the source limits assumed): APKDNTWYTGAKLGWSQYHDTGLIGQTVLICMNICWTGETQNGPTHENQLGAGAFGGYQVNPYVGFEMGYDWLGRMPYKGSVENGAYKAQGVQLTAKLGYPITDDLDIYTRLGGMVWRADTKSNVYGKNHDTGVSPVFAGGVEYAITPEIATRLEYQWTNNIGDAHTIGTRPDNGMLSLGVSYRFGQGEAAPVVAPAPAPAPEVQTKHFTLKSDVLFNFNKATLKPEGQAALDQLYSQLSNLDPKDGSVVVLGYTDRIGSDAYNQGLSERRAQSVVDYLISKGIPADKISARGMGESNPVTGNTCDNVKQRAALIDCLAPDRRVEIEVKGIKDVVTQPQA

Streptavidin-coated iron-nanoparticles (from UniProt P22629 37-163)
proportion of bacteria expressing SA-B3 after magnetic separation [1]: 92%
proportion of SA-B3-expressing bacteria lost on the columns and while washing [2]: 7%

Reference: patent publication US20080193373A1
